Data on one molecule can be found in patent publication US20200360469A1 (published 2020).

The target in the experiment is full-length (FL) BRAF^WT, 6x-HIS-BRAF-WT/FLAG (human, UniProt P15056 2-766). As to the kind of experiment: kinase activity inhibition (ELISA); with 0.1 nM Dabrafenib. In general terms: In an ELISA, binding on a coated surface is turned into a signal by an enzyme label.

Broadly, the IC50 is the concentration needed to halve the response being measured. A higher IC50 goes with weaker potency in that assay.

Sequence of full-length (FL) BRAF^WT, 6x-HIS-BRAF-WT/FLAG (P15056 2-766): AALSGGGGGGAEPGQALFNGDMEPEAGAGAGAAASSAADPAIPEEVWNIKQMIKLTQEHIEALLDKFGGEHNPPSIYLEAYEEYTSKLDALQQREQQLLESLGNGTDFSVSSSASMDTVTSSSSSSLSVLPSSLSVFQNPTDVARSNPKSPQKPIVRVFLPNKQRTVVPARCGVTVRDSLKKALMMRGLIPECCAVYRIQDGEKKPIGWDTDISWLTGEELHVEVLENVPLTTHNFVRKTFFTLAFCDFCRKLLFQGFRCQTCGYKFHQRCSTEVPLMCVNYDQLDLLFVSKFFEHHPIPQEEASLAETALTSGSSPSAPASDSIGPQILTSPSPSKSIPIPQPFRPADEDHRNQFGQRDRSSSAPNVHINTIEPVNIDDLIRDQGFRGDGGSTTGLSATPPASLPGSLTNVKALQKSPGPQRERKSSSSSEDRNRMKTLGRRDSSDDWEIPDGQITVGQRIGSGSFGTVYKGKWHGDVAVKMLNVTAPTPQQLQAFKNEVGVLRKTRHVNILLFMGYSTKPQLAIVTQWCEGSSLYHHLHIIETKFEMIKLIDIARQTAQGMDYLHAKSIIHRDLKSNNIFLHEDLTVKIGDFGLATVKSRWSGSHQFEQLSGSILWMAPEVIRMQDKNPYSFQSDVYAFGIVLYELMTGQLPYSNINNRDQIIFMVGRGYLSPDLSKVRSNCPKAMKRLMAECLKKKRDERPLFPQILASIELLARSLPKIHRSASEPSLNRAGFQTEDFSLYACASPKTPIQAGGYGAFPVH

TRHVNILLFM [braftide] showed a concentration for half-maximal inhibition (IC50) of 280 nM.
